From patent publication US11054425B2, “System and method for identification and characterization of transglutaminase species” (Roche Sequencing Solutions, Inc., priority 2014, dated 2021) come the findings set out here.

Series [1] has as its system KalbTG and S. mobaraensis MTG. The series can be described thus: dual site-specific labeling with Cy3 and Cy5 labels. Type of series: biochemical. Particulars: KalbTG + Cy3 label 30 min, then S. mobaraensis MTG + Cy5 label 15 min. As to the method: Turning to FIG. 6C, the high sequence specificity of KalbTG was used to conjugate a 6 kDa Cy3 label to the YRYRQ (SEQ ID NO:1) site of a 7 kDa substrate peptide comprising both the KalbTG and S. mobaraensis MTG glutamine-containing motifs. The reaction was run for 30 minutes to saturate the YRYRQ (SEQ ID NO:1) site. Analysis by SDS-PAGE confirmed that the label was integrated at a single site. The substrate peptide was subsequently incubated for 15 minutes with S. mobaraensis MTG and a 6 kDa Cy5 label. […] Accordingly, KalbTG may be useful for the industrial-scale synthesis of complex protein conjugates of interest in therapeutic or diagnostic applications.
For the orthogonal labeling experiment, a molecule containing both KalbTG and MTG Q-tags was chemically synthesized to have the primary chemical structure:
(§1) If not noted otherwise, labeling reactions were performed for 15 minutes at 37° C. in the presence of 72 μM substrate protein, 720 μM label peptide and 1 μM transglutaminase in 200 mM MOPS pH 7.2 and 1 mM EDTA. […] Samples were taken between incubation steps and analyzed by SDS-PAGE, in-gel fluorescence (BioRad ChemiDoc gel documentation system, Cy3 and Cy5 LED and filter sets). […] The mixture was filtered (0.2 μm spin filter) and analyzed by LC-MS with UV detection at 214 nm and 305 nm.

The nature of series [2]: differential scanning calorimetry (DSC). Type of series: physicochemical. The settings on record: purified and activated enzyme. As to the method: Initial screening at the 5 ml scale provided clear evidence that proteins with the anticipated electrophoretic mobility of full length KalbTG fusions were expressed, and that a fusion with tandem SlyD chaperones (Scholz, et al. 2005. Journal of Molecular Biology 345(5): 1229-1241) yielded the highest amount of soluble protein among all the constructs tested (FIG. 3A). The expression of this construct was further optimized by screening different incubation times and temperatures, Isopropyl β-D-1-thiogalactopyranoside (IPTG) inducer concentrations and induction times, media types and volumes. With reference to FIGS. 3B and 3C, the modular nature of the chosen fusion construct afforded the SlyD fusion protein, the pro-enzyme, and the activated enzyme by a combination of sequential purification and proteolytic cleavage steps. The expression construct 200 included, starting from N-terminus, two sequential SlyD chaperones 202, a factor Xa protease cleavage site (C1), the KalbTG pro-peptide 204, a trypsin protease cleavage site (C2) the KalbTG enzyme 206, and an 8×-histidine tag 208. The SlyD chaperones 202 are cleaved from the expression construct 200 with a factor Xa protease 210. […] The melting point of the purified and activated enzyme was determined to be 48.9° C. using differential scanning calorimetry (DSC). […]
(In general: Differential scanning calorimetry records heat flow against a reference as temperature is scanned.)

The test system of another series is KalbTG. The series can be described thus: Cy3 labeling of Q-tagged SlyD/FKBP scaffold, SDS-PAGE. The settings on record: 15 minute reaction, pH 6.2 to 9.0 tested. The class given is biochemical, Kutzneria albida.
Text: Next, the array and in-solution data were applied to perform site-specific labeling on protein substrates. The molecular chaperone SlyD is a useful scaffold for labeling approaches as epitope-containing loops can be grafted onto the FKBP domain for presentation to binders or enzymes (PCT App. Pub. No. WO 2012/150321 A1 to Andres et al.). A chimeric protein consisting of the Thermus thermophilus FKBP domain and the KalbTG recognition sequence RYRQR (SEQ ID NO:14) was produced. Labeling with a ten-fold excess of KalbTG K-tag-Cy3 and a substrate to enzyme ratio of 72:1 afforded approximately 70% yield of a labeled protein species after 15 minutes (FIG. 6A). This yield remained constant over a time-course of 60 minutes. […] The molecular weight shift from 13 kDa to 19 kDa was observed on the SDS-PAGE gel, corresponding exactly to the incorporation of a single 6 kDa label molecule. […]
as §1

The subject of series [3] is Z-[GGGYRYRQGGGG (SEQ ID NO:75)]-OH. The experiment in a line: GLDH assay of transglutaminase enzyme activity after storage. The class given is biochemical. The settings on record: as measured by GLDH assay. As to the method:
A further experiment was performed to determine the activity of KalbTG enzymes prepared from two different constructs, and stored at two different temperatures. The KalbTGt3 (SEQ ID NO:10) and KalbTGt1 (SEQ ID NO: 12) enzymes tested were obtained respectively from the EcSlyD2-Xa-KalbTGt3-8×His-tag construct (SEQ ID NO:8) and the EcSlyD2-Xa-KalbTGt1-8×His-tag construct (SEQ ID NO:11) described in Example 3. The activity of the two KalbTG enzymes was tested after storage at either 4° C. or −20° C. and compared against the activity of commercially available S. mobaraensis MTG according to a published protocol (Oteng-Pabi, et al., 2013. Analytical biochemistry 441(2): 169-173). In particular, assays were performed at 37° C. in 200 μl total volume. The assay mixture included 200 mM MOPS, 1 mM EDTA, and 1 mM DTT at pH 7.4. Further, α-ketoglutarate and NADH were added at a concentration of 500 μM, along with 2 U/ml GLDH, and between 0.1 μg and 1.0 μg of one of the transglutaminase enzymes. The glutamine substrate was 200 μM Z-[[…] (SEQ ID NO:75)]-OH, and the amine donor was 10 mM cadaverine, where Z represents a carboxybenzyl group. All data were collected in triplicate (average of 3 wells in a microtiter plate) and baseline activity (buffer without enzyme) subtracted.

In the case of “Z-[GGGYRYRQGGG (SEQ ID NO: 101)]-PEG27-[GIEGRG (SEQ ID NO: 102)]-PEG27-PEG27-[GGGDYALQGG (SEQ ID NO: 103)]-OH”, the “yield of dually labeled construct” value in series [1] was “nearly quantitative yield”.

B1: KalbTG: Kutzneria albida microbial transglutaminase (protein)
chain: MHKWFLRAAVVAAVGFGLPTLIATTAQAAAVAAPTPRAPLAPPLAEDRSYRTWRVEDYVEAWERYHGREMTEDERENLARGCIGVTVVNLNREDLSNPPLNLSFGSLRTAEAVQAALNKIVDTHPSPAQYEAAVAKDPILKRLKNVVKALPSWIDSAKLKASIFSKRFYSWQNPDWSEERAHTTYRPDRETDQVDMSTYRYRARPGYVNFDYGWFDQDTNTWWHANHEEPRMVVYQSTLRHYSRPLQDFDEQVFTVAFAKKD
modifications: Hypothetical_transglutaminase
notes: Kutzneria albida microbial transglutaminase
As to B1, the “melting point (DSC)” value in series [2] is 48.9 °C. Further, the “pH of highest labeling efficiency” value with KalbTG is listed as 7.4. Also, the “increase in KalbTG enzymatic activity by purification process with ammonium chloride” value in series [3] is recorded as “up to 9 fold”.
